The target in one test is canine IL-31Rα. Kind of test: ELISA binding of chimeric and caninized antibodies to canine IL-31Rα. As to conditions: FIG. 1-3, in words. The protocol: The nucleotide and deduced amino acid sequence of the HC and LC of selected rat antibodies reactive with canine IL-31Rα was determined. The amino acid sequences representing the 3 HC CDRs and 3 LC CDRs for each antibody also were determined. These CDRs were used to develop caninized antibodies that bind canine IL-31Rα ECD. The binding of caninized antibodies to IL-31Rα was determined by ELISA as follows:
• 1. Anti-Dog IgG (cFc specific)-Peroxidase (Sigma-Aldrich SAB3700109-1.5 MG) • 2. TMB-ELISA Substrate (Thermo-Fisher Cat #34028) • 3. PBS pH7.4 (Thermo-Fisher Cat #10010001) • 4. Tris Buffered Saline with Tween 20 (TBST) (Sigma-Aldrich T9039-10PAK)
• 1. Coat immunoplates by cIL-31Rα in PBS buffer at 1 μg/mL, 100 μL/well. Incubate the plates at 37° C. for 1-2 hrs or 4° C. overnight. • 2. Wash the plates 3 times by TBST buffer. • 3. Block the plates by blocking buffer (0.5% BSA in TBST) for 45-60 minutes at room temperature. • 4. Three-fold dilute anti-cIL31-Ra antibodies with blocking buffer in dilution plates and transfer the diluted antibodies into the cIL-31Rα coated plates, incubate 45-60 minutes at room temperature. • 5. Wash the plates 3 times by TBST. • 6. Add 1:2000 diluted HRP conjugated anti-dog IgG Fc into the plates, incubate 45-60 minutes at room temperature. • 7. Wash the plates 3 times by TBST. • 8. […] Read the plates by plate reader at […].

Test [1] addresses T1, canine IL-4 (canine, UniProt O77762 25-132, biotin-labeled in the Octet assay (site not stated)).
T1 construct: Biotin-labeled and loaded on SA biosensors for the kinetics; unlabeled recombinant protein in the DH82 cell assay; also called cIL-4; canine Interleukin-4
T1 sequence (looked up): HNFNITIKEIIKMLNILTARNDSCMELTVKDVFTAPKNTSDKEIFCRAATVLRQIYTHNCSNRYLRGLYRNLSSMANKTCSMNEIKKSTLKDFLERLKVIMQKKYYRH
In words: BLI (Octet). The protocol: (§1) The binding constants for the cFc fusion proteins provided in Tables 3 and 4 below, were determined using OCTET® HTX. All kinetics measurements were performed by OCTET® HTX using SA® biosensors and DATA ACQUISITION® 12.0 software. 10 μg/mL of biotin-labeled antigen, either canine IL-4 (cIL-4) or canine IL-13 (cIL-13) were loaded onto the SAR biosensors for 120 seconds. Next, the biosensors were placed into 1×pH 7.0 TBS/Casein buffer for 60 seconds for the blocking phase. For the association phase, antigen loaded biosensors were placed into 2-fold serial dilutions from 1 μM down to 15.6 nM of the wild-type, the bispecific, or the FcRn-mutant receptor Fc-fusions that recognized the cIL-4 or cIL-13 antigen in 1×pH 7.0 TBS/Casein buffer for 30 seconds. The last well was buffer alone and that sensor was used for reference sensor subtraction. Finally, the biosensors were placed into 1×pH 7.0 TBS/Casein buffer for 120 seconds for the dissociation phase. The results were then analyzed using Data Analysis 12.0 software and the curves were fitted using a 1:1 binding model.

The target in test [2] is T2, canine IL-13 (canine, UniProt Q9N0W9 19-131, limits assumed, biotin-labeled in the Octet assay (site not stated)).
T2 construct: Biotin-labeled and loaded on SA biosensors for the kinetics; unlabeled in the DH82 cell assay; also called cIL-13; canine Interleukin-13
T2 sequence (looked up): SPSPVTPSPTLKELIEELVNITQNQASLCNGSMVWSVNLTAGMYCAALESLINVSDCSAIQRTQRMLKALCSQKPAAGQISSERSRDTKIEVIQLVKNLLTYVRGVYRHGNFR
Kind of test: BLI (Octet). The protocol: as §1
For orientation: Biolayer interferometry detects binding as a change in optical thickness at a sensor tip.

In test [3] the target is T2, canine IL-13. In words: cell-based or functional assay.
Test [4] has as its target T1, canine IL-4. Kind of test: cell-based or functional assay.
Test [5] concerns the target T2, canine IL-13. In words: cell-based or functional assay. The source holds these as a separate data set.
In test [6] the target is T1, canine IL-4. In words: cell-based or functional assay. This is another data set of the same source.
Test [7] addresses T2, canine IL-13. In words: cell-based or functional assay. This is another data set of the same source.
Test [8] addresses T1, canine IL-4. In words: BLI (Octet); summary table, rounded from Table 3.
The target in test [9] is T2, canine IL-13. In words: BLI (Octet); summary table, rounded from Table 4.
Test [10] deals with T1, canine IL-4. In words: BLI (Octet HTX), biotin-cIL-4 on SA biosensors, fusion protein in solution, 1:1 fit. The protocol:
as §1

For test [11], the target named is T2, canine IL-13. In words: BLI (Octet HTX), biotin-cIL-13 on SA biosensors, fusion protein in solution, 1:1 fit. The protocol: as §1

In general, Kd refers to the equilibrium constant for the complex coming apart. Read a high Kd as lower affinity. What is called koff is the first-order rate constant of dissociation. A high value points to fast dissociation. By kon is commonly meant the second-order rate constant of association. A low value points to slow association.

B1: c10A12 H2L6: caninized rat 10A12 anti-canine IL-31Rα antibody; likely c10A12VH2-cIgGBm (SEQ ID NO: 27) with c10A12VL6-cCl (SEQ ID NO: 31) (antibody)
heavy: EVQLVESGGDLVKPGGSLRLSCAASGFTFSNYYMAWVRQAPGKGLQWVASISTGGGNTYYRDSVKGRFTISRDNAKNTLYLQMNSLRAEDTAMYYCARHGTLYFDYWGQGTLVTVSSASTTAPSVFPLAPSCGSTSGSTVALACLVSGYFPEPVTVSWNSGSLTSGVHTFPSVLQSSGLYSLSSMVTVPSSRWPSETFTCNVAHPASKTKVDKPVPKRENGRVPRPPDCPKCPAPEMLGGPSVFIFPPKPKDTLLIARTPEVTCVVVALDPEDPEVQISWFVDGKQMQTAKTQPREEQFAGTYRVVSVLPIGHQDWLKGKQFTCKVNNKALPSPIERTISKARGQAHQPSVYVLPPSREELSKNTVSLTCLIKDFFPPDIDVEWQSNGQQEPESKYRTTPPQLDEDGSYFLYSKLSVDKSRWQRGDTFICAVMHEALHNHYTQESLSHSPGK
light: QPVLTQPPSLSASLGTTARLTCERSSGDIGDSYVSWYQQKPGSPPRDVIYVDDQRPSEVSKSFSGSKDTSANAGLLLISGLQPEDEADYFCQSYDSNIDGPVFGGGTHLTVLGQPKASPSVTLFPPSSEELGANKATLVCLISDFYPSGVTVAWKADGSPVTQGVETTKPSKQSNNKYAASSYLSLTPDKWKSHSSFSCLVTHEGSTVEKKVAPAECS
Regarding B1, the “EC50 of binding to canine IL-31Rα compared with the corresponding chimeric antibody” value at canine IL-31Rα is “even lower than the EC50 for the corresponding chimeric 10A12 antibody”.

B2: cIL-4Rα-13Rα1_ZW1-cFc (Fc fusion)
chain 1: VKVLHEPSCFSDYISTSVCQWKMDHPTNCSAELRLSYQLDFMGSENHTCVPENREDSVCVCSMPIDDAVEADVYQLDLWAGQQLLWSGSFQPSKHVKPRTPGNLTVHPNISHTWLLMWTNPYPTENHLHSELTYMVNVSNDNDPEDFKVYNVTYMGPTLRLAASTLKSGASYSARVRAWAQTYNSTWSDWSPSTTWLNYYEPWEQHLPPKRENGRVPRPPDCPKCPAPEMLGGPSVFIFPPKPKDTLLIARTPEVTCVVVDLDPEDPEVQISWFVDGKQMQTAKTQPREEQFNGTYRVVSVLPIGHQDWLKGKQFTCKVNNKALPSPIERTISKARGQAHQPSVYVYPPSREELSKNTVSLTCLIKDFFPPDIDVEWQSNGQQEPESKYRTTPPQLDEDGSYALVSKLSVDKSRWQRGDTFICAVMHEALHNHYTQESLSHSPGK
chain 2: GGVAAPTETQPPVTNLSVSVENLCTVIWTWDPPEGASPNCTLRYFSHFDNKQDKKIAPETHRSKEVPLNERICLQVGSQCSTNESDNPSILVEKCTPPPEGDPESAVTELQCVWHNLSYMKCTWLPGRNTSPDTNYTLYYWHSSLGKILQCEDIYREGQHIGCSFALTNLKDSSFEQHSVQIVVKDNAGKIRPSFNIVPLTSHVKPDPPHIKRLFFQNGNLYVQWKNPQNFYSRCLSYQVEVNNSQTETNDIFYVEEAKCQNSEFEGNLEGTICFMVPGVLPDTLNTVRIRVRTNKLCYEDDKLWSNWSQAMSIGENTDPTPKRENGRVPRPPDCPKCPAPEMLGGPSVFIFPPKPKDTLLIARTPEVTCVVVDLDPEDPEVQISWFVDGKQMQTAKTQPREEQFNGTYRVVSVLPIGHQDWLKGKQFTCKVNNKALPSPIERTISKARGQAHQPSVYVLPPSREELSKNTVSLLCLIKDFFPPDIDVEWQSNGQQEPESKYLTWPPQLDEDGSYFLYSKLSVDKSRWQRGDTFICAVMHEALHNHYTQESLSHSPGK
notes: also called cIL4Rα-IL13Rα1_ZW1-cFc; cIL-4Rα-IL-13Rα1_ZW1-cFc
For the molecule B2, in the test with canine IL-4 [1], the “fold change of KD against the unmodified cIL-4Rα-cFc homodimer” value is approximately 10000 fold. Besides, the “fold tighter binding than the unmodified IL-13Rα1-cFc” value with canine IL-13 [2] worked out at 8 fold. Besides, in the test with canine IL-13 [3], the “fold change of the concentration that inhibits 50% of the cIL-13 mediated STAT6 phosphorylation in DH82 cells, against cIL-13Rα1-cFc” value was determined as 6 fold lower and the “fold change of the concentration that inhibits 50% of the cIL-13 mediated STAT6 phosphorylation in DH82 cells, against cIL-13Rα2-cFc” value was approximately 20 fold higher. In the test with canine IL-4 [4], the “IL-4 IC50 (inhibition of cIL-4 mediated STAT6 phosphorylation in DH82 cells)” value came out at 0.046 nM. Moreover, the “IL-13 IC50 (inhibition of cIL-13 mediated STAT6 phosphorylation in DH82 cells)” value in the test with canine IL-13 [5] was found to be 3.02 nM. The “IL-4 (IC50), summary table” value in the test with canine IL-4 [6] was determined as 0.05 nM. Moreover, in the test with canine IL-13 [7], the “IL-13 (IC50), summary table” value is 3 nM. In the test with canine IL-4 [8], this molecule yielded a Kd of 10 nM. The molecule also showed a Kd in the test with canine IL-13 [9] of 0.4 nM. In the test with canine IL-4 [10], this molecule came in with a Kd of 9.85 nM, a koff of 0.00234 s⁻¹ and a kon of 237000 M⁻¹ s⁻¹. For the same molecule, in the test with canine IL-13 [11], the affinity, expressed as Kd, was 0.415 nM; the koff was determined as 3.91e-05 s⁻¹; the kon is 94400 M⁻¹ s⁻¹.

B3: c44E2 H5k1: caninized rat 44E2 anti-canine IL-31Rα antibody; likely c44E2VH5-cIgGBm (SEQ ID NO: 43) with c44E2VL1-cCk (SEQ ID NO: 45) (antibody)
heavy: ELTLQESGPGLVKPSQTLSLTCTVSGFSLTSNGVSWIRQRPGRGLEWMGAISSGGSTYYNSVLKSRISITADTAKNQFSLQLSSMTTEDTAVYYCARRLSGYNYVPFAYWGQGTLVTVSSASTTAPSVFPLAPSCGSTSGSTVALACLVSGYFPEPVTVSWNSGSLTSGVHTFPSVLQSSGLYSLSSMVTVPSSRWPSETFTCNVAHPASKTKVDKPVPKRENGRVPRPPDCPKCPAPEMLGGPSVFIFPPKPKDTLLIARTPEVTCVVVALDPEDPEVQISWFVDGKQMQTAKTQPREEQFAGTYRVVSVLPIGHQDWLKGKQFTCKVNNKALPSPIERTISKARGQAHQPSVYVLPPSREELSKNTVSLTCLIKDFFPPDIDVEWQSNGQQEPESKYRTTPPQLDEDGSYFLYSKLSVDKSRWQRGDTFICAVMHEALHNHYTQESLSHSPGK
light: EIVMTQSPASLSLSQEEKVTITCKASQNIYKHLAWYQQKPGQAPKLLIYNANSLQTGVPSRFSGSGSGTDFSFTISSLEPEDVAVYYCQQYYSGDTFGAGTKVELKRNDAQPAVYLFQPSPDQLHTGSASVVCLLNSFYPKDINVKWKVDGVIQDTGIQESVTEQDKDSTYSLSSTLTMSSTEYLSHELYSCEITHKSLPSTLIKSFQRSECQRVD
B3: the “EC50 of binding to canine IL-31Rα compared with the corresponding chimeric antibody” value on canine IL-31Rα is on record as “most similar to the EC50 of the corresponding chimeric 44E2 antibody”.

The record behind these values is patent US20250325630A1, “HOMODIMER FUSION PROTEINS FOR TREATING ATOPIC DERMATITIS” (Intervet Inc., priority 2021, published 2025).
